Reference: PMC3269026 (Frontiers in Microbiology, 2012)

Target: T1, translocated intimin receptor (Tir) of EPEC, delivered to HEp-2 cells (EPEC (strain JPN15.96), UniProt B7UM99 1-550)
T1 sequence: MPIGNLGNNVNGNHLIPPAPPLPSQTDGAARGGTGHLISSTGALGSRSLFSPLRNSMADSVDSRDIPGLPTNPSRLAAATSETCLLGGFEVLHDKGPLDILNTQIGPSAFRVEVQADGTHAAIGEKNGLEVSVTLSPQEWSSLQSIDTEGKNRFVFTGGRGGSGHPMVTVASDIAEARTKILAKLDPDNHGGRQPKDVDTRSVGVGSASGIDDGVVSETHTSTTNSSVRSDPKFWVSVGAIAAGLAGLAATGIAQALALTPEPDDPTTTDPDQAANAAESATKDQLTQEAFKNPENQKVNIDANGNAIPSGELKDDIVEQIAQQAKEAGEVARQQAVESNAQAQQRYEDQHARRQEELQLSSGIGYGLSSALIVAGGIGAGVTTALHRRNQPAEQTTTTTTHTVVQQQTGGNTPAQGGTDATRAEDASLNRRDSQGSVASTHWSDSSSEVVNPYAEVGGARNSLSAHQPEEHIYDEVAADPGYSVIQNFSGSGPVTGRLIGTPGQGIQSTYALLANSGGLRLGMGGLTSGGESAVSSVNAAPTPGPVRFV
Assay: bacterial adherence to Tir-primed cells

B1: EHEC intimin (natural protein)
chain: NGENYFKLGSDSKLLTHDSYQNRLFYTLKTGETVADLSKSQDINLSTIWSLNKHLYSSESEMMKAAPGQQIILPLKKLPFEYSALPLLGSAPLVAAGGVAGHTNKLTKMSPDVTKSNMTDDKALNYAAQQAASLGSQLQSRSLNGDYAKDTALGIAGNQASSQLQAWLQHYGTAEVNLQSGNNFDGSSLDFLLPFYDSEKMLAFGQVGARYIDSRFTANLGAGQRFFLPANMLGYNVFIDQDFSGDNTRLGIGGEYWRDYFKSSVNGYFRMSGWHESYNKKDYDERPANGFDIRFNGYLPSYPALGAKLIYEQYYGDNVALFNSDKLQSNPGAATVGVNYTPIPLVTMGIDYRHGTGNENDLLYSMQFRYQFDKSWSQQIEPQYVNELRTLSGSRYDLVQRNNNIILEYKKQDILSLNIPHDINGTEHSTQKIQLIVKSKYGLDRIVWDDSALRSQGGQIQHSGSQSAQDYQAILPAYVQGGSNIYKVTARAYDRNGNSSNNVQLTITVLSNGQVVDQVGVTDFTADKTSAKADNADTITYTATVKKNGVAQANVPVSFNIVSGTATLGANSAKTDANGKATVTLKSSTPGQVVVSAKTAEMTSALNASAVIFFDQTKASITEIKADKTTAVANGKDAIKYTVKVMKNGQPVNNQSVTFSTNFGMFNGKSQTQATTGNDGRATITLTSSSAGKATVSATVSDGAEVKATEVTFFDELKIDNKVDIIGNNVRGELPNIWLQYGQFKLKASGGDGTYSWYSENTSIATVDASGKVTLNGKGSVVIKATSGDKQTVSYTIKAPSYMIKVDKQAYYADAMSICKNLLPSTQTVLSDIYDSWGAANKYSHYSSMNSITAWIKQTSSEQRSGVSSTYNLITQNPLPGVNVNTPNVYAVCVE
- fold binding over C. rodentiumΔeae: ~20 fold
